Experimental findings from patent publication US20220195043A1 (BEIJING MABWORKS BIOTECH, published 2022) are described below.

Changes are numbered by the printed parent chain. Where two headings read alike, the source gives them in different places.

The target of assay [1] is T1, human TCR/CD3 complex on cell surfaces (primary human CD4+ T cells; Jurkat cells; human PBMCs) (human, UniProt P07766 23-207).
T1 construct: whole, on cells; Native complex on cells; the γ, δ, ζ and TCR chains of the complex are present on the cells too; also called human CD3 complexes on cell surfaces; human CD3+ T cells
Put plainly: FACS on primary human CD4+ T cells, PE goat anti-human IgG, MFI.

For assay [2], the target named is T2, human CD3ε-his (Cat #:10977-H08s, SinoBiological, China) (human, UniProt P07766 23-126).
T2 construct: Bought protein; also called human CD3ε protein; recombinant human CD3ε; not shown: his tag
Put plainly: SPR (BIAcore 8K); human CD3ε-his coupled to CM5 chip, antibody injected. For orientation: SPR reads the build-up and loss of mass on a sensor chip optically.

The target in assay [3] is T2, human CD3ε-his (Cat #:10977-H08s, …). The experiment in a line: ELISA: plate coated with human CD3ε-his, antibody titrated, HRP goat anti-human IgG, OD 450. A general note: An ELISA detects its analyte on a solid surface through an enzyme-linked reagent.
The target is the same in assay [4]. The description is as above. This is another data set of the same source.
Assay [5] addresses T3, monkey CD3ε-his (Cat #: 90047-C08H, SinoBiological, China) (monkey, UniProt Q95LI5 22-117).
T3 construct: Bought protein; also called monkey CD3ε protein; recombinant monkey CD3ε
T3 sequence: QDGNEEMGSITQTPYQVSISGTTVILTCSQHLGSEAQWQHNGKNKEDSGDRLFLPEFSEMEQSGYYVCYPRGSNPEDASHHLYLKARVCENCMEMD
The experiment in a line: ELISA: plate coated with monkey CD3ε-his, antibody titrated, HRP goat anti-human IgG, OD 450.

The target of assay [6] is T3, monkey CD3ε-his (Cat #: 90047-C08H, …). Described as above. The source holds these as a separate data set.
Assay [7] addresses T4, human CD20 (HEK293A/human CD20 cells) (human, UniProt P11836 1-297).
T4 sequence: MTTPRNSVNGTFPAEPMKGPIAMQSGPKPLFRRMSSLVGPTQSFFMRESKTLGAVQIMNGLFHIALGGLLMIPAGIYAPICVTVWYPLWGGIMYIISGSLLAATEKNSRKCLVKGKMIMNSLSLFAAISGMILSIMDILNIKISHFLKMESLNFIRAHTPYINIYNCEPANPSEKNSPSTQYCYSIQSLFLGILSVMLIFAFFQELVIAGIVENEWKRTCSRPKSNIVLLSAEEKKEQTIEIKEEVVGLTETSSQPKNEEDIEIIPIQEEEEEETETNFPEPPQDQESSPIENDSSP
The experiment in a line: cell-based or functional assay.

The target in assay [8] is T2, human CD3ε-his (Cat #:10977-H08s, …). The experiment in a line: SPR (BIAcore 8K); human CD3ε-his coupled to CM5 chip, antibody injected. The source holds these as a separate data set.
Assay [9] concerns the target T4, human CD20 (HEK293A/human CD20 cells). The experiment in a line: FACS on HEK293A/human CD20 cells, PE anti-human IgG secondary antibody, MFI.
For assay [10], the target named is T5, monkey CD20 (HEK293A/monkey CD20 cells) (monkey, UniProt P11836 1-297 (human entry)).
T5 construct: Stably expressed on HEK293A cells; also called cynomolgus CD20
T5 chain: T4 sequence with S25P, F31L, T51A, A157V, N166Y, K217R, N226S, I227V, T239V
Put plainly: FACS on HEK293A/monkey CD20 (CynoCD20) cells, PE anti-human IgG secondary antibody, MFI.

Assay [11] deals with T2, human CD3ε-his (Cat #:10977-H08s, …). Put plainly: ELISA: plate coated with human CD3ε-his (hCD3ε-his), antibody titrated, HRP goat anti-human IgG, OD450.

T2 sequence (P07766 23-126 limits assumed): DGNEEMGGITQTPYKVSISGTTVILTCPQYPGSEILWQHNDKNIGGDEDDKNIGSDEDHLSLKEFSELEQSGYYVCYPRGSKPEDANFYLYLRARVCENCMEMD
T1 sequence (P07766 23-207, one chain of several): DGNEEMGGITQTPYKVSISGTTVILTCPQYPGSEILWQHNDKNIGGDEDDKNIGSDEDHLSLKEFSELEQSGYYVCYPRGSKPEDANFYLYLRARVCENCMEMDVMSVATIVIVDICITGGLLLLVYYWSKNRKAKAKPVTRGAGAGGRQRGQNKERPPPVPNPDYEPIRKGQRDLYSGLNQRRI

B1: chimeric anti-CD3 antibody CD3-19 (full length, human IgG1) (antibody, V domains shown)
VH: EVKLLESGGGLVQPKGSLKLSCAASGFTFNSYAMNWVRQAPGKGLEWVARIRSKYNNYATYYADSVKDRFTISRDDSQSILYLQMNNLKTEDTAMYYCVRHGNFGNSYLSYWAYWGQGTLVTVSA
VL: QAVVTQESALTTSPGETVTLTCDSSTGAVTTSNYANWVQEKPDHLFTGLIGGTQRSAPGVPARFSGSLIGDKAALTITGAQTEDEAIYFCVLWYSNLWVFGGGTKLTVLG
notes: also called chimeric CD3-19 antibody; parent antibody
One may read the EC50 (read off the curve) as the concentration at which the effect is half-maximal. As usually defined, the kon is the rate constant with which the complex forms. With B1, the “EC50 (read off the curve)” value in assay [1] is roughly 0.7 µg/mL; in assay [3], roughly 0.05 µg/mL; in [4], roughly 0.05 µg/mL; in assay [5] it was roughly 0.05 µg/mL; in [6] it was roughly 0.06 µg/mL. For the same molecule, in [2], the kon turned out to be 119000 M⁻¹ s⁻¹.

B2: MBS303-1 (bispecific antibody against CD3 and CD20, MIL220 + MIL221-1) (bispecific antibody, human IgG1, kappa, lambda, L234A L235A, N297A)
heavy 1: QVQLVQSGAEVKKPGSSVKVSCKASGYAFSYSWINWVRQAPGQGLEWMGRIFPGDGDTDYNGKFKGRVTITADKSTSTAYMELSSLRSEDTAVYYCARNVFDGYWLVYWGQGTLVTVSSASTKGPSVFPLAPSSKSTSGGTAALGCLVKDYFPEPVTVSWNSGALTSGVHTFPAVLQSSGLYSLSSVVTVPSSSLGTQTYICNVNHKPSNTKVDKKVEPKSCDKTHTCPPCPAPEAAGGPSVFLFPPKPKDTLMISRTPEVTCVVVDVSHEDPEVKFNWYVDGVEVHNAKTKPREEQYASTYRVVSVLTVLHQDWLNGKEYKCKVSNKALPAPIEKTISKAKGQPREPQVYTLPPSREEMTKNQVSLSCAVKGFYPSDIAVEWESNGQPENNYKTTPPVLDSDGSFFLVSKLTVDKSRWQQGNVFSCSVMHEALHNHYTQKSLSLSPGK
light 1: DIVMTQTPLSLPVTPGEPASISCRSSKSLLHSNGITYLYWYLQKPGQSPQLLIYQMSNLVSGVPDRFSGSGSGTDFTLKISRVEAEDVGVYYCAQNLELPYTFGGGTKVEIKRTVAAPSVFIFPPSDEQLKSGTASVVCLLNNFYPREAKVQWKVDNALQSGNSQESVTEQDSKDSTYSLSSTLTLSKADYEKHKVYACEVTHQGLSSPVTKSFNRGEC
heavy 2: QVQLVQSGAEVKKPGSSVKVSCKASGYAFSYSWINWVRQAPGQGLEWMGRIFPGDGDTDYNGKFKGRVTITADKSTSTAYMELSSLRSEDTAVYYCARNVFDGYWLVYWGQGTLVTVSSGGGGSGGGGSGGGGSDIVMTQTPLSLPVTPGEPASISCRSSKSLLHSNGITYLYWYLQKPGQSPQLLIYQMSNLVSGVPDRFSGSGSGTDFTLKISRVEAEDVGVYYCAQNLELPYTFGGGTKVEIKGGGGSGGGGSGGGGSEVQLLESGGGLVQPGGSLRLSCAASGFTFNTYAMNWVRQAPGKGLEWVARIRSKYNNYATYYAISVKDRFTISRDNSKNTLYLQMNSLRAEDTAVYYCVKHGNFGNSYLSYWAYWGQGTLVTVSSASTKGPSVFPLAPSSKSTSGGTAALGCLVKDYFPEPVTVSWNSGALTSGVHTFPAVLQSSGLYSLSSVVTVPSSSLGTQTYICNVNHKPSNTKVDKKVEPKSCDKTHTCPPCPAPEAAGGPSVFLFPPKPKDTLMISRTPEVTCVVVDVSHEDPEVKFNWYVDGVEVHNAKTKPREEQYASTYRVVSVLTVLHQDWLNGKEYKCKVSNKALPAPIEKTISKAKGQPREPQVYTLPPSREEMTKNQVSLWCLVKGFYPSDIAVEWESNGQPENNYKTTPPVLDSDGSFFLYSKLTVDKSRWQQGNVFSCSVMHEALHNHYTQKSLSLSPGK
light 2: QAVVTQEPSLTVSPGGTVTLTCQSSTGAVTTNNYANWVQQKPGHAFRGLIGGTKQRAPGVPARFSGSLLGGKAALTLSGVQPEDEAEYYCVLWYSNLWVFGGGTKLTVLGQPKAAPSVTLFPPSSEELQANKATLVCLISDFYPGAVTVAWKADSSPVKAGVETTTPSKQSNNKYAASSYLSLTPEQWKSHRSYSCQVTHEGSTVEKTVAPT
notes: CD20:CD3 = 2:1
As a reminder, the Kd is the concentration at which binding is half-saturated. Turning to B2, in assay [7], the “EC50 of killing of HEK293A/hCD20 cells by T cells, MBS303-1 alone” value worked out at 0.0076 µg/mL and the “EC50 of killing of HEK293A/hCD20 cells by T cells, MBS303-1 with 1 µg/ml MIL62” value worked out at 0.0032 µg/mL. The molecule also gave a Kd in assay [8] of 1.99 nM. The “EC50 (read off the curve)” value in [9] was roughly 0.04 µg/mL. In addition, in assay [10], the binding result was “binds”. The “EC50 (read off the curve)” value in assay [11] was roughly 0.06 µg/mL.

B3: MBS303-2 (bispecific antibody against CD3 and CD20, MIL220 + MIL221-2) (bispecific antibody, human IgG1, kappa, lambda, L234A L235A, N297A)
heavy 1: B2 heavy 1
light 1: B2 light 1
heavy 2: B2 heavy 2 with N337D, V356M, K361R
light 2: B2 light 2
notes: CD20:CD3 = 2:1
B3: the “EC50 of killing of HEK293A/hCD20 cells by T cells, MBS303-2 alone” value in [7] came to 0.0098 µg/mL. Besides, the “EC50 of killing of HEK293A/hCD20 cells by T cells, MBS303-2 with 1 µg/ml MIL62” value in assay [7] was determined as 0.0039 µg/mL. This molecule registered a Kd in assay [8] of 1.79 nM. Besides, the “EC50 (read off the curve)” value in [9] is roughly 0.03 µg/mL; in assay [10], roughly 0.06 µg/mL; in assay [11] it was roughly 0.06 µg/mL.
